Reference: US20200024330A1

Columns and labels:
Assay in all cases: cell-based or functional assay
[1] = target: HIV-1 MGRM-D-018 envelope glycoprotein (Env) on pseudovirus (HIV-1)
[2] = target: HIV-1 92TH021 envelope glycoprotein (Env) on pseudovirus (HIV-1)
[3] = target: HIV-1 92UG024 envelope glycoprotein (Env) on pseudovirus (HIV-1)
[4] = target: HIV-1 Env of isolate JRCSF (HIV-1) (UniProt P20871)
[5] = target: HIV-1 Env of isolate MGRM-C-026 (HIV-1)
[6] = target: HIV-1 Env of isolate 92TH021 (HIV-1)

“1496_C09 (PG9) (TCN-109) monoclonal antibody” was tested, and the IC50, pseudovirus neutralization [1] was 0.0444 µg/mL, the IC50, pseudovirus neutralization [2] was 0.103 µg/mL and the IC50, pseudovirus neutralization [3] was 1.91 µg/mL.

“PGT-132 (B cell culture well 5113_D22) (antibody)” gave a Primary Neutralization Index (B cell culture well 5113 D22) [4] of 3, a Primary Neutralization Index (B cell culture well 5113 D22) [5] of 6 and a Primary Neutralization Index (B cell culture well 5113 D22) [6] of 51.

“PGT-133 (B cell culture well 5117_E22) (antibody)” showed a Primary Neutralization Index (B cell culture well 5117 E22) [4] of 3.6, a Primary Neutralization Index (B cell culture well 5117 E22) [5] of 3.4 and a Primary Neutralization Index (B cell culture well 5117 E22) [6] of 42.5.
